The text below walks through data of the DeepSol protein solubility set.

The series can be described thus: soluble on expression in E. coli; label from the status in PepcDB or PDB records.
As for “MEEWKTSFREIYGRSPTAGDISVAPNHIKAILQSEKKENDEKIEEKQAKRGVKRKNFEMKMMEGEQFSPIKKRVNLNQLGSENDKNPIPLRSSPRKKMIAIEVLPEKSMVSPKKKPVGSVPFEFDDFSPVKSYSASTSKSAVKSTLTPIKSPTKRAYQRPLRDLKMLLLPTPEKGQEVEGPVEEFDDETNEDVAKARSYNPAARKLGGSSKSDQNFQKINLRKKQFVRGKVTAEQKRKLKRKQMFKKKY”, the “soluble on expression in E. coli” value is “soluble”. Regarding “MEEYKLSHLKELEAESIHIIREVAAEFENPVMLYSIGKDSSVMVRLAEKAFYPGKVPFPLMHIDSKWKFKEMIQFRDEYAKKHGWNLIVESNMEAFHAGVGPFTHGSKVHTDLMKTQALLHALDKYKFDAAFGGARRDEEKSRAKERIFSFRDKFHQWDPKNQRPELWDIYNARVHKGESIRVFPISNWTELDIWQYIRLENIPIVPLYYAKERPVINLDGNIIMADDDRLPEKYRDQIEMKMVRFRTLGCWPLTGAVESGAATIEEIVEEMMTTTKSERTTRVIDFDQEGSMEQKKREGYF”, the “soluble on expression in E. coli” value is given as “not soluble”. Consider “MEFDYVICEECGKEFMDSYLMDHFDLPTCDDCRDADDKHKLITKTEAKQEYLLKDCDLEKREPPLKFIVKKNPHHSQWGDMKLYLKLQIVKRSLEVWGSQEALEEAKEVRQ”, for which the “soluble on expression in E. coli” value is on record as “soluble”.

“MEFHFFGTGSGVPSIERNVSACAVRFLQQRGKQWLFDCGEATQHQILRSSIALGKIERIFITHLHGDHIFGLPGLLGSRSFQGGENPLFLYGPKGIRSFVETALQVSNTHVKYELTIEEFSEPGLLFHEEGFKVETILLDHVMPCYAFKVTEDDRPGELLVDRLKAKGVPPGPLYRKIQQGETVELPTGERLEANAFLGPPKRGRSFVLAGDTRPVKELIPFAKNVNVLIHEATFLDDKKGHAHEYGHSTMADAIQLAKQANVDHLILTHISSRYHDMSDELQKKAQNAFANAVVAHDFYVFHLPLAKGLEHHHHHH”: the “soluble on expression in E. coli” value is given as “not soluble”.

Regarding “MEFKVEDDRISLYADSKRVSWVLYRKHSGEIELLATFTAKGEEGKGYASKVVGEALNYARGFEKIKVSCPYIKSWIEKHGFDRDVEYTKLLEFKEAVEKFNRFHSPEAVAEFMKEEGEVVYVRFTGPFCVSCGVYDYFEDLTQDAEVLDYEEVEDGFIVRYRLL”, the “soluble on expression in E. coli” value is “not soluble”. “MEFRKEVEVAKILVGGKVEENVVEIRYDPLTLQTSRILKKTIPMQSGDFQEEIDSTRSWCPFCPERIEQMVSRDPEIMEGELWKRGEAVLFSNLTPYSKYSLVLRLTEEHYVPVSEFKSQHFFDAFKLIQEYVKKVPEGKYYVTIGMNYLKPSGSSIMHPHIQVMISEVSTDYFARLDWSALEFKESNGVDYWKKLAEVEKGGERYIGSTDKTEWVAAFAPKGFFHFTGIPEEREFMQMSDEQLKGIAEGIAKILRYYGRKNLNAFNFSMFCADRIGDHFRTNINIVARTPFAKYYWCDVFYPKMFHDESVVFFVPEEYAKEIREIWSEL”: the “soluble on expression in E. coli” value is listed as “not soluble”.

“MEGDTVHWQTHTVFNQPIPLNNSNLYLSDGALCEAVTREGAGWDSDFLASIGQQLGTAESLELGRLANVNPPELLRYDAQGRRLDDVRFHPAWHLLMQALCTNRVHNLAWEEDARSGAFVARAARFMLHAQVEAGSLCPITMTFAATPLLLQMLPAPFQDWTTPLLSDRYDSHLLPGGQKRGLLIGMGMTEKQGGSDVMSNTTRAERLEDGSYRLVGHKWFFSVPQSDAHLVLAQTAGGLSCFFVPRFLPDGQRNAIRLERLKDKLGNRSNASCEVEFQDAIGWLLGQEGEGIRLILKMGGMTRFDCALGSHAMMRRAFSLAIYHAHQRHVFGNPLIQQPLMRHVLSRMALQLEGQTALLFRLARAWDRRADAKEALWARLFTPAAKFVICKRGMPFVAEAMEVLGGIGYCEESELPRLYREMPVNSIWEGSGNIMCLDVLRVLNKQAGVYDLLSEAFVEVKGQDRYFDCAVRRLQQQLRKPAEELGREITHQLFLLGCGAQMLKYASPPMAQAWCQVMLDTRGGVRLSEQIQNDLLLRATGGVCV”: the “soluble on expression in E. coli” value was “not soluble”.

“MEGIIVRRVIPSDNSCLFNAIGYVMDKDKNKAPELRQVIAAAVASNKEKYNEAFLGKLNEEYCAWILNPDKWGGAIELSILADYYGREIAAYDIQTSRCDLYGQTRNYDERVMLIYDGLHYDALALSPFEGAEEDFDMTIYPVGKDRSIGSIEGLALNLVKDQQRKRSYTDTANFTLRCGVCQIGVIGQKEAVEHAQATGHVNFQEYK”: the “soluble on expression in E. coli” value is “soluble”. The same measure for “MEGISNFKTPSKLSEKKKSVLCSTPTINIPASPFMQKLGFGTGVNVYLMKRSPRGLSHSPWAVKKINPICNDHYRSVYQKRLMDEAKILKSLHHPNIVGYRAFTEANDGSLCLAMEYGGEKSLNDLIEERYKASQDPFPAAIILKVALNMARGLKYLHQEKKLLHGDIKSSNVVIKGDFETIKICDVGVSLPLDENMTVTDPEACYIGTEPWKPKEAVEENGVITDKADIFAFGLTLWEMMTLSIPHINLSNDDDDEDKTFDESDFDDEAYYAALGTRPPINMEELDESYQKVIELFSVCTNEDPKDRPSAAHIVEALETDV”: “soluble”; for “MEGVELKEEWQDEDFPIPLPEDDSIEADTLDGTDPDRQPGSLEVNGNKVRKKLMAPDISLTLDPGEDSLWSDDLDEAGEVDLEGLDTPSENSDEFEWEDDLPKPKTTEVIRKGSITEYTATEEKGDGRRWRMFRIGEQDHRVDMKAIEPYKKVISHGGYYGDGLNAIVVFAVCFMPESGQPNYRYLMDNLFKYVIGTLELLVAENYMIIYLNGATTRRKMPSLGWLRRCYQQIDRRLRKNLKSLIIVHPSWFIRTLLAVTRPFISSKFSQKIRYVFNLAELAELVPMEYVGIPECIKQVDQELNGKQEPPKSEQ”: “not soluble”. With “MEGVKKIKNPSTVKDELLELMFRIYRSTNGKYPALEWVKRKPNPNDFDGFREVYEPFLKFRLSQEFDELYTYQKDNRIIGTIALVYKRIKEKGIWWVPEELMNEKVGLIEFFVVDPEFQGKGIGSTLLEFAVKRLRSLGKDPYVVTFPNLEAYSYYYMKKGFREIMRYKEFVILKFNHKKFQLEHHHHHH”, the “soluble on expression in E. coli” value is reported as “not soluble”.

On to “MEHEIGNISIARIRQMNPSLKGINNDFVMDRSEHYIPENMNPIFKYPLRLDGIIISIREKGSAKVNINLREYDIEQNDLIICAPGDILQSMLSPGIHLSQMFLISSDFLKEMYINLNSFMPFFISLKENPKFHLMEEEVQELKSFYELIEETVSRNDNFRTEIVRRLMGAYLYKIGSILHRKQPEFLSENPKSLKREEVLFNQFINLLTEHHRKERRVDFYAEQLFLSPKHFSTVVKKVSGKTAGEWIDEYVILEAKALLKYSVMSIQEVAYFMNFPNPSFFGKYFKHHTGLSPSEYKMQ”, for which the “soluble on expression in E. coli” value is recorded as “not soluble”. For “MEHKTPKHIVAVAGYLTNEKNEVLLTKVHWRADTWELPGGQVEEGEALDQAVCREIKEETGLTVKPIGITGVYYNTSMHILAVVFKVAYISGEIKIQPEEIQEAKFVDLNEENIDEYITRPHMKSRTLDAMRATHFIPYETWEVQPYNLIGRL”, the “soluble on expression in E. coli” value was “not soluble”.

Regarding “MEHNILQVIALAEKLKYEMRHSWLSNGRQESVAEHTWRMSLMAILVEPYLDQKVSIEKLLKMVIIHDLVEAEAGDIPAFDTMNSHDLQLQKQKNELEAILNIKQTLTGSLGEELYDLWMEFEAKETYEAKVANALDKLEVKIQHNEADIDTWLPIEHKMTFQVAKHTNFDSFLSKLQKIIEQDGEKKLIAAGIDVEACKQ”, the “soluble on expression in E. coli” value is “soluble”. The result for “MEIKLQGKVSLVTGSTRGIGRAIAEKLASAGSTVIITGTSGERAKAVAEEIANKYGVKAHGVEMNLLSEESINKAFEEIYNLVDGIDILVNNAGITRDKLFLRMSLLDWEEVLKVNLTGTFLVTQNSLRKMIKQRWGRIVNISSVVGFTGNVGQVNYSTTKAGLIGFTKSLAKELAPRNVLVNAVAPGFIETDMTAVLSEEIKQKYKEQIPLGRFGSPEEVANVVLFLCSELASYITGEVIHVNGGMF” reads “soluble”; that for “MEINADFTKPVVIDTDQLEWRPSPMKGVERRMLDRIGGEVARATSIVRYAPGSRFSAHTHDGGEEFIVLDGVFQDEHGDYPAGTYVRNPPTTSHVPGSAEGCTIFVKLWQFDPADRTQFSKNMEAELGAPVEGISTSLLHEDERETVTHRKLEPGANLTSEAAGGIEVLVLDGDVTVNDEVLGRNAWLRLPEGEALSATAGARGAKIWMKTGHLRFVRTPEV”, “soluble”.
